Results: the supplement of paper PMC9170038

tested on: MS2 coat protein; test: apparent KD of MS2 coat protein; higher = weaker reporter binding; details: Eterna round: R107; input ligand: none
Procedure, shortened: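 Apparent KD was obtained for each design as the median of normalised binding-curve fits over its clusters. RNA switches transcribed on-chip from Illumina sequencing clusters were titrated with SNAP-549-labelled MS2 coat protein (twofold steps, 0.7 or 1.5 nM to 3 µM) in 100 mM Tris-HCl pH 7.5, 80 mM KCl, 4 mM MgCl2, without or with constant ligand.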

Sequence | apparent KD of MS2 coat protein [nM]
UGUGCAUGAGUUGGAAAAGCUCAUGGGCAUCGAGGACCGGUACGGCCGCCACUCGGCUGUACAUGAGGAUCACCCAUGUCAGGGU [#1 Same State - Tryptophan A Attempt #23 (HarryS)] | 288
GAACAUAUGGAUACUAUUAUGAGCACAGAAGGAGCGAGCGGAAGCUCAGGUAGGUCGCUGGGUAACAUGAGGAUCACCCAUGUUG [XArg-A sub1] | 19.1
UUGUUGUUUGGAAGGAGCGUGGAUGAGUUAGAACAUGAGGAUCACCCAUGUUGGAUGAUACCACAGGUAGGUCGCCGGGUGGUGG [11.Z] | 16.6
AACAUGAGGAUCACCCAUGUCCUCGUGAUUCGAGGACCGGUACGGCCGCCACUCGGUCCUCGCGAGGUGGAGUCAAAGACUCCAA [Omei Trp A SS A v3] | 384
GCACGACAUGAGGAUCACCCAUGUGCAGAUACCAGUAAUGUAUGUUACCCUUGGCAGCUGAGUAGGUCUGGAGGGCUAUAGGUUU [Same State Theophylline A GF13] | 13.9
CUCCCGUGAGCGGCCGCCACUGGAGGCCUCGCGCGACAUGAGGAUCACCCAUGUUGGCCCGGCCUCAGGACCGGGUUCGCGCGAG [Same State - Tryptophan B Attempt #5 (HarryS)] | 9.67
AAACGUUGCUGCGAUACCAGACAUGAGGAUCACCCAUGUACCGAGGUACCCGAAAGGAAUGUCCCUUGGCAGCGCAGCAACGAAA [MAT - Exclusion Theophlline B - Mod of Eli - D24] | 11.7
GGUUGGUUUAUAUAUAGAUUGAUUACUGAAGGAGCGGGAAAUAACCCAGGUAGGUCGCAGAGAUCCACAUGAGGAUCACCCAUGU [!0.I] | 39.5
AGUCUUAAUGGAAGGAGCGCAGUCAUAACAUGAGGAUCACCCAUGUCGAGGUGAGGGUCAUUGCAGGUAGGUCGCCAUACUAGAA [Same State - Arginine B (Freestyle 1)] | 153
CUUACGGGAAACCGACCCAAACAACGGGAAGGAGCGCCAAACAAGGCAGGUAGGUCGCCCACAUGAGGAUCACCCAUGUGUUGGG [Exclusion Arginine A GF 26] | 38
UUAUUUAUAGGGUAUAUCAGAUUAACUGAAGGAGCGUGGUAAUUCACAGGUAGGUCGCAGAUGGAACAUGAGGAUCACCCAUGUU [JR_ExcArginiA_Sub015] | 19.2
AAUAAUAAGGCGGCCGCCACUAAACAUGAGGAUCACCCAUGUCUCGAGCGCAUGCAUAAGGGAUGUAGGACCGGGCCAAUAAUAA [Exclusion - Tryptophan B (Freestyle 2)] | 29.7
AAAUAAACAUCGGCCGCCACUUACUCAUGAGGUAACAACAUGAGGAUCACCCAUGUUUGAGGAUCAAGGACCGGGAUGUAAUAAA [AstrosSSTryB#1] | 27.3
ACACGAAGCUGAAGGAGCGUGGUACAAGUUUUUACAUGAGGAUCACCCAUGUUUCGUCAAUCACAGGUAGGUCGCAGAUGCGUGA [#08 Same State - Arginine B] | 29.2
UCAUGCAGGUCGGCCGCCACUACACACAUGAGGAUCACCCAUGUAGUUACUGGGUGAAGUGGCAGUAGGACCGGGACCUGCAUAU [Brourdmod08] | 423
AUACAUGAGGAUCACCCAUGUCAUUCAGAAGGAGCGUCAUUUUAGACAGGUAGGUCGCUGUUAUUUUUAUUAUUCUUUAUGUUUU [JR_Nu_ExcArginiA_Sub025] | 20.1
UGUAUGUGAUCUGAUACCAGAGUUGAUAAUCUGAGGAUCACCCUGGUAAGGCGAAAGCCGCUCCCUUGGCAGCAGAUCGCAUACU | 946
UUCUGGUCCCGUGAUACCAGAGACAUGAGGAUCACCCAUGUACAUGAGGAUCACCCAUGUUUCCCUUGGCAGCACUGCAGUGAGC [Exclusion Theophylline B GF 15] | 261
CACAUGAGGAUCACCCAUGUCUGAACUGAAGGAGCGCUAAAUAAGGCAGGUAGGUCGCGGAAUCCUGUGUGCAUAUGCACACGGG [9.X] | 22.6
UACCGAUGAAGAAGGAGCGUAUGCUUAUAUGAUGGUAACAUGAGGAUCACCCAUGUCAGUAUACAGGUAGGUCGCUUCAUCGGUA [EAB NP+V+V2 #22] | 59.1
AAAGGACAUGAGGAUCACCCAUGUCUCGAUACCAGCCGAUCAUCAGGCCCUUGGCAGCGAGACAAGGGUCAUGGAUCGCGGUUCU [Beerusmage] | 11.4

same assay, conditions: Eterna round: R107; input ligand: theophylline 20 uM

Sequence | apparent KD of MS2 coat protein [nM]
UACGCUAGGGCGGCCGCCACUCGGACAUGAGGAUCACCCAUGUCGAUUAAUUGAAGGACAUGAAUGAGGACCGGGCUAAGCUAGG [Same State - Tryptophan B / B] | 38.9
UGUGCAUGAGUUGGAAAAGCUCAUGGGCAUCGAGGACCGGUACGGCCGCCACUCGGCUGUACAUGAGGAUCACCCAUGUCAGGGU [#1 Same State - Tryptophan A Attempt #23 (HarryS)] | 141
GAACAUAUGGAUACUAUUAUGAGCACAGAAGGAGCGAGCGGAAGCUCAGGUAGGUCGCUGGGUAACAUGAGGAUCACCCAUGUUG [XArg-A sub1] | 24.7
AAUAUUAUGUCGGCCGCCACUUCCCACAAGAGGUGCCUGCACCCACAUGAGGAUCACCCAUGUCGAAGGACCGGGACGCUCAAUU [theeternabot_sameState_MS2_Trp_B_35] | 23.6
ACAUGAGGAUCACCCAUGUUCCUCUUUGAUACCAGUGAGUUGUUUCGCCCUUGGCAGCGAGUGUUUGUUUUUUUGUUUUGUUUGG [6.S] | 314
GGCUAGGUCUCGGCCGCCACUGCUACAUGAGGAUCACCCAUGUACCUGGGCGGUCGCUCCCUCGGCAGGACCGGGAGACAUUCGU [Onarbeisan] | 13.8
UUGUUGUUUGGAAGGAGCGUGGAUGAGUUAGAACAUGAGGAUCACCCAUGUUGGAUGAUACCACAGGUAGGUCGCCGGGUGGUGG [11.Z] | 48.8
AACAUGAGGAUCACCCAUGUCCUCGUGAUUCGAGGACCGGUACGGCCGCCACUCGGUCCUCGCGAGGUGGAGUCAAAGACUCCAA [Omei Trp A SS A v3] | 487
GCACGACAUGAGGAUCACCCAUGUGCAGAUACCAGUAAUGUAUGUUACCCUUGGCAGCUGAGUAGGUCUGGAGGGCUAUAGGUUU [Same State Theophylline A GF13] | 17.2
CUCCCGUGAGCGGCCGCCACUGGAGGCCUCGCGCGACAUGAGGAUCACCCAUGUUGGCCCGGCCUCAGGACCGGGUUCGCGCGAG [Same State - Tryptophan B Attempt #5 (HarryS)] | 12.4
UGACAUUGCUCAGAUACCAGACAUGAGGAUCACCCAUGUACCAAGGUACCCGAAAGGAAUGUCCCUUGGCAGCUGAGCAAUGUCU [TheoBX 3 #MS2Left #Theo2 #StaticStem] | 11.9
AAACGUUGCUGCGAUACCAGACAUGAGGAUCACCCAUGUACCGAGGUACCCGAAAGGAAUGUCCCUUGGCAGCGCAGCAACGAAA [MAT - Exclusion Theophlline B - Mod of Eli - D24] | 15.3
GGUUGGUUUAUAUAUAGAUUGAUUACUGAAGGAGCGGGAAAUAACCCAGGUAGGUCGCAGAGAUCCACAUGAGGAUCACCCAUGU [!0.I] | 50.6
ACAUGAGGAUCACCCAUGUGCAUCACCCGACGAGGACCGGUACGGCCGCCACUCGGGUAUAUAUUUGCAUCGGGUGAUUUUACGU [#25 Tryptophan A Same State] | 59.5
AGUCUUAAUGGAAGGAGCGCAGUCAUAACAUGAGGAUCACCCAUGUCGAGGUGAGGGUCAUUGCAGGUAGGUCGCCAUACUAGAA [Same State - Arginine B (Freestyle 1)] | 222
CUUACGGGAAACCGACCCAAACAACGGGAAGGAGCGCCAAACAAGGCAGGUAGGUCGCCCACAUGAGGAUCACCCAUGUGUUGGG [Exclusion Arginine A GF 26] | 47.7
AAUUGCGUUGGUGAGGCGGUUAAUGGCGAUACCAGCGUGGAAACACGCCCUUGGCAGCGCCAAAACAUGAGGAUCACCCAUGUUA [Liberec] | 149
UUAUUUAUAGGGUAUAUCAGAUUAACUGAAGGAGCGUGGUAAUUCACAGGUAGGUCGCAGAUGGAACAUGAGGAUCACCCAUGUU [JR_ExcArginiA_Sub015] | 28.5
AGAAGUCCAGACUACACGUGGAAAAGCGAUACCAGACUCAUAGGUGUCCCUUGGCAGCGCGUAACAUGAGGAUCACCCAUGUGAU [theeternabot_exclusion_MS2_Theo_A_9] | 190
